The source of these data is patent publication US20150126713A1 (Astellas, published 2015).

The target of test [1] is T1, human IL-23R-mouse Fc fusion protein (human; mouse, UniProt Q5VWK5 24-353).
T1 construct: Expressed in FreeStyle 293 cells; also called human IL-23R-Fc fusion protein; not shown: Fc region of mouse immunoglobulin IgG2a as encoded by vector pFUSE-mIgG2A-Fc2 (InvivoGen); limits and any linker not sta
T1 sequence: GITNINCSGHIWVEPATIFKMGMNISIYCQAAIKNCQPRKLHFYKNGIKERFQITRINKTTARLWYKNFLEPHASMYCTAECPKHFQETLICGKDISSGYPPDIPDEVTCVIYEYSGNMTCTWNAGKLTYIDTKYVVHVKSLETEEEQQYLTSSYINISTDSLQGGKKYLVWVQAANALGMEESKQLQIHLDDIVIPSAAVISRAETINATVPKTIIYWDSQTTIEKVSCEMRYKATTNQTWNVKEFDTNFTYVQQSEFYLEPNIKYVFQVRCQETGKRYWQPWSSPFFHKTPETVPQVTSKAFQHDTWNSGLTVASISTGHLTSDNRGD
In words: antigen ELISA, human IL-23R-mouse Fc immobilized, HRP anti-human IgG, chemiluminescence. On the procedure:
(§1) The present inventors used an antigen ELISA to measure the antigen-specific binding activities of the fully human antibodies constructed in the above-described Example. A human or monkey IL-23R-Fc fusion protein was immobilized onto a Maxisorp 384-well plate (Nunc, Inc.) at a concentration of 500 ng/mL. A blocking agent (Blocking One; Nacalai Tesque, Inc.) was added thereto and allowed to stand at room temperature for 1 hour, followed by washing twice with a wash buffer [TPBS: 0.05% Tween-20-containing phosphate buffered saline (PBS)], and each of the purified antibody samples was suitably serially diluted and added thereto. Incubation was performed at room temperature for 1 hour, followed by washing four times with TPBS, and HRP-labeled anti-human IgG antibody (DAKO) which was 2000-fold diluted with dilution buffer (Blocking One which was two-fold diluted with PBS) was added as secondary antibody. Incubation was performed at room temperature for 1 hour, followed by washing four times with a washing buffer. […] of BM-chemiluminescence ELISA substrate (POD) (Roche Diagnostics) that is a reagent for detecting chemiluminescence was added thereto and the amount of chemiluminescence was measured with an EnVision counter (Perkin Elmer). Each of the antibodies was tested in duplicate, and the EC 50 was analyzed by curve fitting.

The target in test [2] is T2, monkey IL-23R-mouse Fc fusion protein (monkey; mouse).
T2 construct: extracellular domain; also called monkey IL-23R-Fc fusion protein
In words: antigen ELISA, monkey IL-23R-mouse Fc immobilized, HRP anti-human IgG, chemiluminescence. On the procedure: as §1

Test [3] deals with T3, human IL-23R on Kit-225 cells (human, UniProt Q5VWK5 24-629).
T3 sequence: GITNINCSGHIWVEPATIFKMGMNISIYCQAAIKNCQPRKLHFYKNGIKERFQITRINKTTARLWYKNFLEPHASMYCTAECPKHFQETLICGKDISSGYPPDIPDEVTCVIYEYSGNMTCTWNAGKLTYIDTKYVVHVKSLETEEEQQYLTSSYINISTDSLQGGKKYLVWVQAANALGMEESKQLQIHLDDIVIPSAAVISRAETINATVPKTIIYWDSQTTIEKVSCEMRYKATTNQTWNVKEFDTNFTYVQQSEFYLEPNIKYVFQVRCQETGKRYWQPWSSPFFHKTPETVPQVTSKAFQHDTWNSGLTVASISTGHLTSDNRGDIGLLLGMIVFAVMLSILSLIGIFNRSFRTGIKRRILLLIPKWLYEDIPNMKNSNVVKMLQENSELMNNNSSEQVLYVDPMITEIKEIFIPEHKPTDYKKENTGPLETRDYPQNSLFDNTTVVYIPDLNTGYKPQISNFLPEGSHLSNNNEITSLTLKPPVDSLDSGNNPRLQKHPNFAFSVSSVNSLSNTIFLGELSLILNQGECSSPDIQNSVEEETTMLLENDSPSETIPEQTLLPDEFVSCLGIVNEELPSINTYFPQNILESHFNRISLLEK
The experiment in a line: cell-based or functional assay.

Test [4] addresses T1, human IL-23R-mouse Fc fusion protein. The experiment in a line: antigen ELISA, human IL-23R-mouse Fc immobilized, HRP anti-mouse Ig, chemiluminescence. On the procedure:
(§2) The present inventors used an antigen ELISA to measure the antigen-specific binding activity of the antibody. The human or monkey IL-23R-Fc fusion protein was immobilized onto a Maxisorp 384-well plate (Nunc, Inc.) at a concentration of 500 ng/mL. A blocking agent (Blocking One; Nacalai Tesque, Inc.) was added thereto and allowed to stand at room temperature for 1 hour, followed by washing twice with a wash buffer [TPBS: a phosphate buffered saline (PBS) containing 0.05% Tween-20], and the purified antibody samples were suitably serially diluted and added thereto. Incubation was performed at room temperature for 1 hour, followed by washing four times with TPBS, and HRP-rabbit anti-mouse Ig antibody (DAKO) which was 2000-fold diluted with a dilution buffer (Blocking One which was two-fold diluted with PBS) was added. Incubation was performed at room temperature for 1 hour, followed by washing four times with a wash buffer. 40 μL of BM-chemiluminescence ELISA substrate (POD) (Roche Diagnostics), which is a reagent for detecting chemical luminescence, was added, and the amount of chemiluminescence was measured with an EnVision counter (Perkin Elmer). Each antibody was tested in duplicate and the EC50 was analyzed by curve fitting. […]
A general note: ELISA stands for enzyme-linked immunosorbent assay.

For test [5], the target named is T2, monkey IL-23R-mouse Fc fusion protein. The experiment in a line: antigen ELISA, monkey IL-23R-mouse Fc immobilized, HRP anti-mouse Ig, chemiluminescence. On the procedure: as §2

As a reminder, the EC50 is the concentration needed to bring the measured effect to its halfway point.

B1: fully human 25-3-1 (antibody, human IgG1, kappa, V domains shown)
VH: QVQLQESGPGLVKPSQTLSLTCSVSGGSIDSGDHYWTWIRQHPGKGLEWIGYIYSSGHTYYSPSLKSRVTISVDTSKNQFSLRLSSVTAADTAVYYCARVGDYEWFDTWGQGTLVTVSS
VL: DIVMTQSPDSLAVSLGERATINCKSSQTILYPSNNMNYLGWYQQRAGQSPRLLIYWASTRESGVPDRFSGSGSGTDFTLTISSLQAEDVAVYYCQQYYSSLPTFGQGTKVEIKR
notes: human Ig gamma1 / kappa
With B1, the EC50 in test [1] was 0.0176 µg/mL; in test [2], 0.0124 µg/mL. For the same molecule, the “Human IL-23-inducible Kit-225 cell proliferation inhibitory activity, IC50” value in test [3] is 0.00309 µg/mL.

B2: 25-3 (chimeric) (antibody, V domains shown)
VH: QVQLQESGPGQVKPSQTLSLTCSVSGGSIDSGDHYWTWIRQHPGEVLEWIGYIYSSGHTYYSPSLKSRLTMSLDTSKNQFSLRLSSVTAADTAVYYCARVGDYEWFDTWGQGTLVTVSS
VL: DIVMTQSPDSLAVSLGERATINCKSSQTILYPSNNMNYLGWYQQRAGQSPRLLIYWASTRESGVPDRFSGSGSGTDFTLTISSLQAEDVAVYYCQQYYSSLPTFGQGTKVEIKR
notes: also called antibody (chimeric antibody) named 25-3
As to B2, the figures for the EC50 in test [4] and in test [5] were 0.021 µg/mL and 0.028 µg/mL, respectively.

B3: fully human 25-3-2 (antibody, human IgG1, kappa, V domains shown)
VH: QVQLQESGPGLVKPSQTLSLTCSVSGGSIDSGDHYWTWIRQHPGKGLEWIGYIYSSGHTYYSPSLKSRVTISVDTSKNQFSLRLSSVTAADTAVYYCARVGDYEWFDTWGQGTLVTVSS
VL: DIVMTQSPDSLAVSLGERATINCKSSQTILYPSNNMNYLGWYQQKPGQSPRLLIYWASTRESGVPDRFSGSGSGTDFTLTISSLQAEDVAVYYCQQYYSSLPTFGQGTKVEIKR
notes: human Ig gamma1 / kappa
For B3, the EC50 in test [1] worked out at 0.0164 µg/mL; in test [2], 0.0122 µg/mL. Also, in test [3], the “Human IL-23-inducible Kit-225 cell proliferation inhibitory activity, IC50” value turned out to be 0.00266 µg/mL.

B4: fully human 25-3-4 (antibody, human IgG1, kappa, V domains shown)
VH: QVQLQESGPGLVKPSQTLSLTCSVSGGSISSGDHYWTWIRQHPGKGLEWIGYIYSSGHTYYSPSLKSRVTISVDTSKNQFSLRLSSVTAADTAVYYCARVGDYEWFDTWGQGTLVTVSS
VL: DIVMTQSPDSLAVSLGERATINCKSSQTILYPSNNMNYLGWYQQKPGQSPRLLIYWASTRESGVPDRFSGSGSGTDFTLTISSLQAEDVAVYYCQQYYSSLPTFGQGTKVEIKR
notes: human Ig gamma1 / kappa
As for B4, the EC50 in test [1] came to 0.0223 µg/mL; in test [2] it was 0.0121 µg/mL. For the same molecule, the “Human IL-23-inducible Kit-225 cell proliferation inhibitory activity, IC50” value in test [3] is 0.00348 µg/mL.

B5: fully human 25-3-3 (antibody, human IgG1, kappa, V domains shown)
VH: QVQLQESGPGLVKPSQTLSLTCSVSGGSISSGDHYWTWIRQHPGKGLEWIGYIYSSGHTYYSPSLKSRVTISVDTSKNQFSLRLSSVTAADTAVYYCARVGDYEWFDTWGQGTLVTVSS
VL: DIVMTQSPDSLAVSLGERATINCKSSQTILYPSNNMNYLGWYQQRAGQSPRLLIYWASTRESGVPDRFSGSGSGTDFTLTISSLQAEDVAVYYCQQYYSSLPTFGQGTKVEIKR
notes: human Ig gamma1 / kappa
Take B5: the EC50 in test [1] was determined as 0.0221 µg/mL; in test [2], 0.0121 µg/mL. For the same molecule, the “Human IL-23-inducible Kit-225 cell proliferation inhibitory activity, IC50” value in test [3] was determined as 0.00568 µg/mL.

B6: fully human 25-3 (antibody, human IgG1, kappa, V domains shown)
VH: QVQLQESGPGQVKPSQTLSLTCSVSGGSIDSGDHYWTWIRQHPGEVLEWIGYIYSSGHTYYSPSLKSRLTMSLDTSKNQFSLRLSSVTAADTAVYYCARVGDYEWFDTWGQGTLVTVSS
VL: DIVMTQSPDSLAVSLGERATINCKSSQTILYPSNNMNYLGWYQQRAGQSPRLLIYWASTRESGVPDRFSGSGSGTDFTLTISSLQAEDVAVYYCQQYYSSLPTFGQGTKVEIKR
notes: Human Ig gamma1 / human kappa constant regions; expressed in CHO-K1SV cells; also called fully human antibody of 25-3
Turning to B6, the 50% effective concentration (EC50) in test [1] worked out at 0.019 µg/mL; in test [2], 0.0123 µg/mL. Also, in test [3], the “Human IL-23-inducible Kit-225 cell proliferation inhibitory activity, IC50” value worked out at 0.00225 µg/mL.
